Results on one molecule are retold here after paper PMC7806715, “Discovery of small molecules targeting the tandem tudor domain of the epigenetic factor UHRF1 using fragment-based ligand discovery” (Scientific Reports, 2021).

In this test the target is T1, FLAG-C-UHRF1 (containing SRA, RING E3 domains and PBR, aa 414–793) (UniProt Q96T88 414-793).
T1 construct: UHRF1 C-terminal fragment with the SRA domain, PBR and RING domain, aa 414–793; Cloned into the vector pMCSG7; The methods mix the names His6-C-FLAG-UHRF1, FLAG-C-UHRF1 and C-FLAG-UHRF1; also called FLAG tagged-C-UHRF1; source: Rosetta (DE3) E. coli, purified (Nuvia IMAC, TEV protease digestion to remove the His-tag, second IMAC pass)
T1 sequence (looked up): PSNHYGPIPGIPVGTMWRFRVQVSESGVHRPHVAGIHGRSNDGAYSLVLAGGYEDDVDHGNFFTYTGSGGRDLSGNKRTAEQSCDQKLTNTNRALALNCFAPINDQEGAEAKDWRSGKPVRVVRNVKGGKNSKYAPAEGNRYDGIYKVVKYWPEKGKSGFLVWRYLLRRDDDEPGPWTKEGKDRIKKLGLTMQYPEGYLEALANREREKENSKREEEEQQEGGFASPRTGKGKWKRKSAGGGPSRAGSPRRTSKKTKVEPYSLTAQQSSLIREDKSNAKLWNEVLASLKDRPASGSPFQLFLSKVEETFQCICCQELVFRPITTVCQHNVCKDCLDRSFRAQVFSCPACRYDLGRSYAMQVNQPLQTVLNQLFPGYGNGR
Put plainly: AlphaScreen or HTRF; AlphaScreen: 300 nM biotinylated-His-Avitag-N-UHRF1 on streptavidin donor beads, 300 nM FLAG-C-UHRF1 on anti-FLAG acceptor beads; 50 mM HEPES pH 6.5 (screen) or 50 mM sodium phosphate pH 7 (dose response), 150 mM NaCl, 0.1% Triton X-100, 1 mM DTT; room temperature; inhibition by fragments or histone peptides. To be noted: both partners purified. (In general: Alpha assays give light when donor and acceptor beads are brought close together.)

B1: biotinylated-His-AviTag-N-UHRF1 (containing UBL and TTD, aa 1–285) (domain or fragment, UniProt Q96T88 1-285, looked up)
chain: MWIQVRTMDGRQTHTVDSLSRLTKVEELRRKIQELFHVEPGLQRLFYRGKQMEDGHTLFDYEVRLNDTIQLLVRQSLVLPHSTKERDSELSDTDSGCCLGQSESDKSSTHGEAAAETDSRPADEDMWDETELGLYKVNEYVDARDTNMGAWFEAQVVRVTRKAPSRDEPCSSTSRPALEEDVIYHVKYDDYPENGVVQMNSRDVRARARTIIKWQDLEVGQVVMLNYNPDNPKERGFWYDAEISRKRETRTARELYANVVLGDDSLNDCRIIFVDEVFKIERPGE
modifications: biotin on the AviTag
notes: Cloned into the vector pMCSG51; also called biotinylated-AviTag-N-UHRF1
B1: the binding result is “binds”.
